A short description of this data set: amyloid nucleation score (Sup35N fusion, yeast selection) (log enrichment); library NNK3; higher = more nucleation; inactive = no reads after selection. The procedure, abridged: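 The nucleation score equals the log enrichment of output over input reads from DiMSum, centred on the mode score of non-aggregating sequences. It was computed only for sequences with 100 or more input reads. The reads came from Illumina sequencing of plasmid inserts from psi-negative yeast expressing Sup35N fused to peptides of 20 random codons, induced with 100 μM copper sulfate for 24 hours and grown 7 days at 30°C without adenine and uracil.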

± gives the uncertainty stated by the source.

Consider PYMWGFIKRWNRNCAGSFAL, for which the amyloid nucleation score result is “inactive”.
Take LVVCYGNWMRLVGIFINGNS: the amyloid nucleation score entry was “inactive”.
Then RFWLLRRVVWEME, with “inactive”; and YGMYC, with “inactive”; and CRVAMILSCFTMVFCSQAAT, with 1.5 ± 0.081.
To AFYDNWKGNG belongs 0.141 ± 0.35; to VRESAWGLYNRYFSVFSAVV, “inactive”; to RVSYKICKERKF, “inactive”.
Then INDLQTSPR, with “inactive”; and LIGLMWFVMWFFMARMREIN, with “inactive”; and CLQDPFPTIVPIVMGSIAKE, with “inactive”.
Regarding INVDGKNNPSRREKTISMGG, the amyloid nucleation score entry is “inactive”.
HVLNEWKSNTGLVVSSAWFC displayed an amyloid nucleation score of 1.43 ± 0.087.
To FNANINNNGIRFRREVNLCW belongs “inactive”; to FQFNILNSVSGLCICYDSGH, 3.41 ± 0.081.
Turning to DPTVVGWEYMVSRFCLSRFT, the amyloid nucleation score entry was “inactive”.
To LYCPGYSMKSSVL belongs “inactive”.
To YFGDPSSRMKCFYPYVSVCR belongs “inactive”; to RVMFMASVWSNCGLWSSGTS, 1.39 ± 0.15.
Take SFSYDTRVDVSAILQSQNSL: the amyloid nucleation score entry was “inactive”.
To IIYPLMKAWISDMLMVISIS belongs “inactive”.
Substance YSDIVFILDLGYCAF displayed an amyloid nucleation score of 1.3 ± 0.091.
Regarding FYSSACVRPVVRYCCVMCDS, the amyloid nucleation score entry is “inactive”.
Turning to LTICFVSYVTVGDAGTMTPR, the amyloid nucleation score amounted to 1.62 ± 0.099.
To HPIANVV belongs “inactive”; to AKSVSLHIPTCRYHLTYIAF, “inactive”; to KLVYFRVFKSRFRSRVGGMV, “inactive”.
To YNSSTTVIDFTF belongs “inactive”; to YLVSYFNRGQSAFRFWDKFA, “inactive”.
To LYVDCGLRIWRNMSAIVGCV belongs “inactive”; to TCECDGFLFFRRCFNWG, “inactive”; to IVFNGLRSMNRE, “inactive”.
As to DGVLNRSNDHPVQTPWPWFW, the amyloid nucleation score entry was “inactive”.
Then RLKRYLHSMTHRRMRERYCY, with “inactive”; and KRLAKWGTMYLV, with “inactive”; and LVLMSEGFM, with “inactive”.
Turning to SLSLSIIRAVDFWDMVRGLN, the amyloid nucleation score entry is “inactive”.
To HLSPVNSK belongs “inactive”; to SFFCN, “inactive”.
As for TWDICFSTLFLMPRMWFGHL, the amyloid nucleation score entry is “inactive”.
Take WFDFHA: the amyloid nucleation score came to 0.9 ± 0.25.
As for GCFLNNMLIGF, the amyloid nucleation score entry was “inactive”.
Then MRELQENVNDDS, with “inactive”; and LINKFRWPTPNECLVPVFQD, with “inactive”.
Turning to EKYWNN, the amyloid nucleation score entry was “inactive”.
To TNNEDKFWRVVLNLGTVTSD belongs “inactive”; to SLNKHR, “inactive”; to IYRVYYDSTLGMCPAWGFYK, “inactive”.
Then VFLILFVLPLFYLNDSPGCA, with “inactive”.
Then RSNICQFLKDFYKRCRKLF, with “inactive”; and HYRFNNACLDRGHSEGYWRI, with “inactive”.
Turning to VGAHSYHVRTPDTES, the amyloid nucleation score stood at 0.221 ± 0.47.
Then AGVNLRTIRVMYRLPIISYL, with “inactive”.
With FVAHCWQSIY, the amyloid nucleation score result was “inactive”.
Then SVIVTYVWVTAVVQGEYSTK, with -0.095 ± 0.55; and FSGGCSVYSMQLFLS, with 1.43 ± 0.11; and HFRDAVGWGFINGCHPAGSG, with “inactive”.
Substance KFVFSFGSLYSVLTLERVEG gave an amyloid nucleation score of 0.388 ± 0.2.
Then PFFCTMITYNGLVYDIFWRG, with “inactive”; and NYMVFNIGVGCFTISNTK, with 3.14 ± 0.069.
Then YGYALVFTFYVGLNSVNRLR, with 0.801 ± 0.3; and DRNCRLIHYFIQ, with “inactive”; and GYFTRFSVFNNMEPLSCCMC, with 1.38 ± 0.13.
Turning to HSFIDERWSLYYERVLVYTG, the amyloid nucleation score result was “inactive”.
For LLVAYPHYAGFCTAVSSKSG, the amyloid nucleation score entry is “inactive”.
To IFSLLPVDILVTLY belongs “inactive”; to SIFAVSGLSVF, “inactive”.
To TIFSIDFIIVYT belongs 1.81 ± 0.057; to DYRVNCFTCLYVVEVSHSHD, 1.84 ± 0.061.
Then RWRFRRWVS, with “inactive”.
For HDDSTSNNSPVSRKPLSPWS, the amyloid nucleation score entry is “inactive”.
Then RMLMIMVACVGTYDSSN, with “inactive”; and RSTWFSFFRRTAHWKKALRP, with “inactive”.
Then HFQMRAERDESSNRPYSSFG, with “inactive”; and SRNLPVLTYLFLVKKWEWYP, with “inactive”.
Then RCTVNRRQSRSAHGMGPSSS, with “inactive”.
As for MCNMCR, the amyloid nucleation score result is “inactive”.
To PHGNVLVLYDKRVLSCVEWN belongs 0.428 ± 0.46; to LINVPDGSSSKLSDMV, “inactive”.
To SPHLLDWSKIAFLVSHMPHS belongs “inactive”.
To RSTDTFWACCSDKTLSLWSA belongs “inactive”.
Take GCYWSRLGVDHRMPMFIARD: the amyloid nucleation score entry was “inactive”.
Take YLGEHRVVVRNSMSPQPWLS: the amyloid nucleation score entry is “inactive”.
Then FELFKKGRSI, with 0.898 ± 0.23; and VICFFTTNAEHLQFLV, with “inactive”; and RRALYKLSSKESWPVDCNSV, with “inactive”.
To EDVSSNIRWRHTGKGETVVM belongs “inactive”; to MFRVSWFLISGLLRSVAWNG, “inactive”; to VWIWWEDSGITCLGYMVLDF, “inactive”.
For the substance CCTSA, the amyloid nucleation score entry is “inactive”.
Then CKTHQVSYAYLC, with “inactive”; and WFASNPIMLPSFYLIPWKRT, with “inactive”.
SIMTSFRPFPTWRCG gave an amyloid nucleation score of -0.563 ± 0.57.
For KYFTLDMNRKSISYL, the amyloid nucleation score entry was “inactive”.
To VNLITREHLKKGSMNNFIAN belongs “inactive”; to FWTCTSSPVLMRWRRSGFNV, “inactive”.
To CSIWLCNKNVQIAN belongs “inactive”; to NDNSSATRSHSGLATRGGLV, “inactive”; to CFLYYRM, 1.17 ± 0.11.
Turning to NVCGNDGNR, the amyloid nucleation score entry is “inactive”.
Then PSTSVPTDMMRFSIYSLLRS, with “inactive”.
To LARWNVIWFFNGNCIFEESV belongs 1.31 ± 0.074.
To MCQNLRMYMIYHRQGKWMKS belongs “inactive”; to CKRHLNYSVSRAKAEKINYL, “inactive”.
For YVFGNWLLCFEHTKMH, the amyloid nucleation score was 1.1 ± 0.14.
Then VGLLVMSVGIERTLWE, with “inactive”; and LNNTQFL, with “inactive”.
To YSRPMVTL belongs “inactive”; to KIIYKGLYEHLIVMLNIINL, “inactive”; to GLDLSSYPEL, “inactive”.
To FDGFLNFVITSRSNVF belongs “inactive”; to SISPVSPGIRAKITTAEMVR, -0.201 ± 1.1; to IYVVLQTWHNYAMLTITGLV, 0.228 ± 0.67.
Turning to NYHTFSYCI, the amyloid nucleation score entry was “inactive”.
As for TVAMR, the amyloid nucleation score result is “inactive”.
As to IVRYTHSSLVYFTDEMMVNR, the amyloid nucleation score is 1.19 ± 0.12.
To TQAWSTL belongs “inactive”.
Then LNFPQMSYP, with “inactive”; and LNQGSYYGMARFPL, with “inactive”.
Consider YWDVNQGVYGINYGTVSHS, for which the amyloid nucleation score came out at 0.256 ± 0.43.
Take RCVQCEAYFCLFDKPDVDDT: the amyloid nucleation score came out at 3.05 ± 0.053.
Then MFMMTKRNCNSTCCHYKFRV, with 0.656 ± 0.16; and ELTEDLVDL, with “inactive”.
To LSLFVGGAEGWVKGDPASEG belongs 0.507 ± 0.25; to QCSWLCIWMGVYLTLILSCA, 0.805 ± 0.17; to LFHSYLIHRLFPSNHSNFRM, “inactive”.
Then DGDYSWGFVIRCHGPRSWSR, with “inactive”; and YSNWKLRRRCYLRDNIFWVI, with “inactive”; and NMMFILGFFNNKY, with 2.38 ± 0.076.
LVNELAQVVVCLGSRSTVLG: the amyloid nucleation score entry was “inactive”.
On to FIIVPKWSCFLVSSMKFRVV, for which the amyloid nucleation score result is “inactive”.
To ASSSQGRDYVCMSYNFIGGV belongs -0.551 ± 0.55.

The values are drawn from the supplement of paper PMC12042874.
